We go through three molecules from PMC6045459 (Nature structural & molecular biology, 2018).

Series [1] has as its target NUDT16TI (NUDT16 Tudor-interacting), purified alone (UniProt Q96DE0). Description: ITC. (Isothermal titration calorimetry measures the heat released or taken up as one component is titrated into another.)
The target of another series is NUDT16TI K5S (UniProt Q96DE0). Description: ITC.
The target in series [2] is NUDT16TI with deletion of His105 (UniProt Q96DE0). Description: ITC.
The series “AUC” concerns the molecule itself. Briefly: AUC.
Series [3] has as its target TIRR (residues 6-211), untagged (human, UniProt Q9BRJ7 6-211). Briefly: crystal structure.

TIRR (residues 6-211), untagged, sequence (Q9BRJ7 6-211): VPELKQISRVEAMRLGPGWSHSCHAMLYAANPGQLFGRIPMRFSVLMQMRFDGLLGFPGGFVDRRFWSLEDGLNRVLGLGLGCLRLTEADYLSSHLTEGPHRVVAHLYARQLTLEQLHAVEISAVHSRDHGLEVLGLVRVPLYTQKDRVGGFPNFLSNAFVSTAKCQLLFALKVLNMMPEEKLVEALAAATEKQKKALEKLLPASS

For orientation: Kd means the free concentration of one partner at which half of the binding sites on the other are occupied at equilibrium, for simple one-to-one binding. In series [1], “53BP1-Tudor (residues 1484-1603) (from UniProt Q12888 1484-1603) (domain or fragment)” registered an equilibrium dissociation constant (Kd) of 1200 nM. Besides, the fold increase of Kd with excess IMP against no IMP in series [1] is 3 fold. The figures for the fold decrease in affinity against NUDT16TI (with NUDT16TI K5S; in series [2]) were 14 fold and 38 fold, respectively.

B1: 53BP1 (residues 1204-1603) (domain or fragment, human, UniProt Q12888 1204-1603, looked up)
chain: EKPVSAPGDDTESLHSQGEEEFDMPQPPHGHVLHRHMRTIREVRTLVTRVITDVYYVDGTEVERKVTEETEEPIVECQECETEVSPSQTGGSSGDLGDISSFSSKASSLHRTSSGTSLSAMHSSGSSGKGAGPLRGKTSGTEPADFALPSSRGGPGKLSPRKGVSQTGTPVCEEDGDAGLGIRQGGKAPVTPRGRGRRGRPPSRTTGTRETAVPGPLGIEDISPNLSPDDKSFSRVVPRVPDSTRRTDVGAGALRRSDSPEIPFQAAAGPSDGLDASSPGNSFVGLRVVAKWSSNGYFYSGKITRDVGAGKYKLLFDDGYECDVLGKDILLCDPIPLDTEVTALSEDEYFSAGVVKGHRKESGELYYSIEKEGQRKWYKRMAVILSLEQGNRLREQYGLG
The stoichiometry N is the number of molecules, sites or subunits per partner or assembly. In the case of B1, the “stoichiometry N” value in “AUC” was determined as 2.

B2: 53BP1-Tudor (residues 1484-1603) (domain or fragment, human, UniProt Q12888 1484-1603, looked up)
chain: NSFVGLRVVAKWSSNGYFYSGKITRDVGAGKYKLLFDDGYECDVLGKDILLCDPIPLDTEVTALSEDEYFSAGVVKGHRKESGELYYSIEKEGQRKWYKRMAVILSLEQGNRLREQYGLG
As for B2, in series [3], the binding result is given as “binds”.
